Reference: doi:10.1101/2023.06.16.545308 (bioRxiv, 2023)
Where two headings read alike, the source gives them in different places.

B1: b27 peptide (9-mer presented by HLA-B27) (peptide)
peptide: RRYQKSTEL
B2: b27’’ peptide (7-mer) (peptide)
peptide: RRYSTEL
B3: a2 peptide (9-mer presented by HLA-A2) (peptide)
peptide: ILKEPVHGV

Key:
[1] = molecular target: T1, human transporter associated with antigen processing (TAP), heterodimer of TAP1 and TAP2 (human, UniProt Q03518;Q03519); assay: cryo-EM structure
[2] = molecular target: T1, human transporter associated with …; assay: cryo-EM structure; remark: listed apart in the source

T1 sequence (Q03518 whole entry, chain 1 of 2): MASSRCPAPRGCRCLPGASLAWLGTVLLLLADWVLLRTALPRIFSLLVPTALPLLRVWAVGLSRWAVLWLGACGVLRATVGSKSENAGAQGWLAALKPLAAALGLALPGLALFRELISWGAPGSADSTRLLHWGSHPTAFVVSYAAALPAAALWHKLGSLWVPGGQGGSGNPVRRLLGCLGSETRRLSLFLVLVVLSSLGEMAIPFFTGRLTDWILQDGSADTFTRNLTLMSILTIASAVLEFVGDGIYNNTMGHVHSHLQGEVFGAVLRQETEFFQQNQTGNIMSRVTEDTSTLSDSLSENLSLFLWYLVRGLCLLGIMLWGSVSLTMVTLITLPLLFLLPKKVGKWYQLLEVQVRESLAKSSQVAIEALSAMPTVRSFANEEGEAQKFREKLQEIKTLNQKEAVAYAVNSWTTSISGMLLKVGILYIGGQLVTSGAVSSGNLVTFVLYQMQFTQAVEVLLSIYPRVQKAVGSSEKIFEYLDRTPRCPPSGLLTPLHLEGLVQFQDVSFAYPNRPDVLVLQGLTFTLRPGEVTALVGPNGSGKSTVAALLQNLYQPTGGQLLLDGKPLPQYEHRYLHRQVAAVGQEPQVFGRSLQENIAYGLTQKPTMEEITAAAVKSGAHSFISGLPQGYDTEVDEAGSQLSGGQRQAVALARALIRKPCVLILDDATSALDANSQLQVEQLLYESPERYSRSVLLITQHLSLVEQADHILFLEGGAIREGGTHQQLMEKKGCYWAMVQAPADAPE
T1 sequence (Q03519 whole entry, chain 2 of 2): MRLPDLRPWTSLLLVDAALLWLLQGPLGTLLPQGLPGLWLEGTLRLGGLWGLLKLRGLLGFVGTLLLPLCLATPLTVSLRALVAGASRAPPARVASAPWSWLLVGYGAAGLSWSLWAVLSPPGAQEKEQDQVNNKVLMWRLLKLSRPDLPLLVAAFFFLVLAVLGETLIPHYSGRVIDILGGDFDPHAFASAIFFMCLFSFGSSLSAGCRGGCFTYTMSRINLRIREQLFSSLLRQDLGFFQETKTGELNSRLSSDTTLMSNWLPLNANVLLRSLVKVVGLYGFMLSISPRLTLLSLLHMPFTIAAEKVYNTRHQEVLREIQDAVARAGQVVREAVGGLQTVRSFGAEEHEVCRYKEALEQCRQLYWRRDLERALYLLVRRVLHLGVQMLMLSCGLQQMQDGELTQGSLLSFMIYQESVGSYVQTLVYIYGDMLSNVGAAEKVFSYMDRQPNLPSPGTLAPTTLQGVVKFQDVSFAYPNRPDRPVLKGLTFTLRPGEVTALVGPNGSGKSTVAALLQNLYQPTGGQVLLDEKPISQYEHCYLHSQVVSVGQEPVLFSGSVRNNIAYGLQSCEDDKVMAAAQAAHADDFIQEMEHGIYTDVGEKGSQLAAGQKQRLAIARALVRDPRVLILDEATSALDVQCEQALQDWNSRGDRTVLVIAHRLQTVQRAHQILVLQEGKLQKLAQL

Binder | binding result [1] | binding result [2]
B1 | binds | 
B2 |  | binds
B3 | binds | 
